For assay [1], the target named is rabbit skeletal muscle actin (rabbit) (UniProt P68135). As to the kind of experiment: actin elongation rate at the barbed end.
Assay [2] has the same target. Put plainly: ultrafiltration.

Results on 1 substance are retold here after article PMC2289016.

The Kd is the concentration at which binding is half-saturated. Lower therefore signals tighter binding.

Consider “human platelet profilin (from UniProt P07737 1-140) (natural protein)”, for which the Kd was 22.5 µM in assay [1] and 2300 nM in assay [2].
